Legend:
soybean plants [1] = test: Soybean seed treatment with chlorothalonil dehalogenase, simulated spray drift of dicamba or 2,4-D; type: in vivo; conditions: soybean seed coated with 3 uL enzyme, 4 weeks after planting; for Percentage Increase in Plant Height Compared to Untreated Seed (2,4-D; Weedar ®64 Spray Treatment) / Percentage Increase in Total Plant Biomass Compared to Untreated Seed (2,4-D; Weedar ®64 Spray Treatment): over the top 2,4-D 500 ppm; for Percentage Increase in Plant Height Compared to Untreated Seed (Dicamba; Clash ™ Spray Treatment) / Percentage Increase in Total Plant Biomass Compared to Untreated Seed (Dicamba; Clash ™ Spray Treatment): over the top dicamba 100 ppm
Procedure: Soybean (variety Asgrow AG4034) seed received a seed treatment with chlorothalonil dehalogenase (SEQ ID NO: 169) enzyme obtained from a production batch produced in a manner similar to that was described previously to generate the SM1 enzyme. Seed treatments were applied prior to planting. […] Seeds were then planted directly into 39.7 cm^3 pots containing a mixture of 3:1 Timberline top soil to MIRACLE GRO potting soil at a depth of 2.54 cm, with 2 seeds per pot. After planting, 50 mL of room temperature water was added to each pot to allow for germination. […] The treatments were then placed in a greenhouse and randomized using a complete block design to adjust for temperature and lighting differences. The plants received the same day/night cycle that would occur in the field on a summer's day. After the initial watering, plants received the same watering regimes. […] The soybean plants were then harvested and measured for biomass and plant height 4 weeks after planting.

soybean plants [2] = test: V1 soybean bioassay of dicamba reacted with ChD with or without MnSO4; conditions: dicamba 100-200 ppm
Procedure: Soybean plants (variety Morsoy Xtra) were planted in Timberline soil (2 seeds per pot) and grown for 12 days under controlled environmental growth conditions: 300 μmol m^−2 s^−1 (light photons) for a 13/11 light/day cycle and a 21° C. day/15° C. night temperature range until the V1 stage of development.
The dilution to achieve 100 ppm or 100 mg/L was made in 25 mM HEPES pH 7 in a 10 mL total volume. […] The ChD enzyme production was centrifuged to remove any cellular debris and then divided into aliquots of 100 μL containing the Bacillus subtillis (A64) filtrate with the ChD expressed enzyme. […] The reactions were incubated at 37° C. with 400 ppm stirring for two hours. Aliquots of the reactions were collected and stored at −80° C.

soybean plants [3] = test: Field soybean plant protection assay with dicamba, CAC or ChD and MnSO4; conditions: field soybean V3-V6, dicamba reaction buffer 200 ppm with 50 mM MnSO4, after 11 days
Procedure: The CAC and ChD enzymes were generated in production batches as previously described and divided up into aliquots and centrifuged to remove any cellular debris. […] The dilution to achieve 200 ppm or 200 mg/L was made in 25 mM HEPES pH 7 in a 10 mL total volume. […] To each treatment, 0.01% SILWET L-77 surfactant was added. Then, 4 mL of reaction solution was applied evenly across 20 plants and compared to the untreated control plants applied to soybean grown in the same location in the field to minimize any field variability. After 11 days, the average trifoliate damage was evaluated by visual scoring.

[4] = 2,4-D degradation by TfdA (2,4-dichlorophenol colorimetric assay and HPLC); type: biochemical
Procedure: They were cloned, expressed, and produced in production batches as previously described for SM1 and other pesticide detoxifying enzymes. […] Reactions were then added to a 15 mL conical tube and placed in a shaker at 30° C. Aliquots consisting of 1 mL were taken from each reaction at the desired time points and flash frozen in a −80° C. freezer for later testing.
The 2,4-D degradation reaction samples were defrosted and vortexed. Samples consisting of 200 μL of each reaction were removed and placed in a 96 well plate. To each well on the assay plate containing a reaction sample, […] pH 10 (0.309 g boric acid, 0.373 g potassium chloride, 4.4 mL 1 M NaOH per 100 mL solution), 2 μL 2% 4-aminoantipyrine, and 2 μL 8% potassium ferricyanide were added. The wells were mixed by back pipetting. The plate was then covered with a film and placed in a 30° C. incubator for 1 hour.

[5] = NADPH consumption by immobilized monooxygenases with dicamba; type: biochemical; conditions: immobilized enzyme, dicamba 150 μM, 30° C., 60 minutes, vs no enzyme negative control (FIG. 3)
[6] = NADPH consumption by immobilized monooxygenases with 2,4-D; type: biochemical; conditions: immobilized enzyme, 2,4-D 150 μM, 30° C., 60 minutes, vs no enzyme negative control (FIG. 3)
Procedure: Monooxygenases can be used to detoxify herbicides in a solution. Monooxygenases use NADPH as a co-factor when degrading substrates. Consumption of NADPH is proportional to the degradation of the substrate.
The ability of each of these enzymes to detoxify 2,4-D was evaluated in a similar manner. […] Aliquots were taken from the samples at 30 minute and one hour timepoints, and NADPH consumption was assessed by measuring absorbance at 340 nm.
(§1) An additional experiment was performed to assess the substrate specificity of the salicylate monooxygenase (SM, SEQ ID NO: 21). […] The assay buffer also contained 0.5 mM FeSO4, 0.5 mM NADPH, 10 mM MgCl2, and 25 mM HEPES (pH 7). After 60 minutes, absorbance at 340 nm was measured to detect NADPH consumption. Data are represented as averages+/−SD from three independent reads of each reaction.

[7] = NADPH consumption by immobilized salicylate monooxygenase with salicylic acid; type: biochemical; conditions: immobilized enzyme, salicylic acid 150 μM, 30° C., 60 minutes (FIG. 3)
Procedure: as §1

lentil plants = test: Lentil seeds coated with immobilized enzyme, grown in dicamba-containing soil; type: in vivo
Procedure: For each treatment group, eighteen lentil seeds were coated with immobilized salicylate monooxygenase (SM, SEQ ID NO: 21) or hydroxyphenylacetate monooxygenase (HPAM, SEQ ID NO: 30), or with a water-only control (H2O) or a control containing only the particles used for immobilization, without any enzyme (“Particle Alone”). […] 50 ml of water was selected as this is the saturation point of this soil at this scale. Herbicides were allowed to sit in the soil for 24 hours before planting of coated seeds. Germination rate was measured at one week and root and shoot lengths were measured after two weeks.
Further data illustrating the protective effects of salicylate monooxygenase (SM) and hydroxyphenylacetate monooxygenase (HPAM) on lentil plants grown in dicamba-containing soil are provided in FIGS. 6-9. Lentil seeds were treated as described above with water alone, particle alone, or enzyme immobilized on a particle. […] Growth (shoot and root length) was measured at two weeks.

soybean seedlings = test: Spray of enzyme-treated dicamba solution onto soybean seedlings; type: in vivo; conditions: 208 μM dicamba, immobilized enzyme, 30° C., soybean seedlings, one week
Procedure: Salicylate monooxygenase (SM, SEQ ID NO: 21) and hydroxyphenylacetate monooxygenase (HPAM, SEQ ID NO: 30) were immobilized on particles. […] Aliquots (1 ml) were taken from incubated samples at 0 minutes, 10 minutes, 30 minutes, 1 hour, 5 hours, 24 hours and 30 hours after the introduction of SM and immediately frozen to stop the detoxification reaction. NADPH consumption was quantified by measuring loss of absorbance at 340 nm using a spectrophotometer. Results for SM are shown in panel A of FIG. 10 and results for HPAM are shown in panel A of FIG. 11. Consumption of NADPH is proportional to the degradation of dicamba.
Immediately after taking the absorbance measurements, the 1 ml aliquots were mixed with a nonionic organosilicone surfactant copolymer (0.1% SILWET L77) and 200 μL of the mixture was sprayed onto 2.5-week-old soybean seedlings (six plants per treatment group, on average). The use of the surfactant ensured even distribution of the solutions on the plants. Control plants were sprayed with water+surfactant alone or dicamba+surfactant alone. After one week, the degree of herbicide damage or the degree of protection from dicamba-induced injury (in plants treated with SM) was assessed visually.

[8] = Absorbance spectra assay of 2,4-D degradation by ChD or CAC; type: biochemical; conditions: 2,4-D 200 mg/L + enzyme at 20X dilution (5 μM), one hour at 37° C.
[9] = Absorbance spectra assay of MCPA-4 amine degradation by ChD or CAC; type: biochemical; conditions: one hour at 37° C.
Procedure: (§2) Small scale (1 mL) assays were performed to evaluate the ability of ChD and CAC to degrade MCPA-4 amine or mecoprop.
(§3) MCPA-4 amine and mecoprop have absorbance maxima (Amax) at approximately 230 and 280 nm. […] MCPA-4 amine or mecoprop end product generation is directly proportional to the degradation MCPA-4 amine or mecoprop, respectively.

[10] = Absorbance spectra assay of mecoprop degradation by ChD or CAC; type: biochemical; conditions: one hour at 37° C.
Procedure: as §2, §3

[11] = Absorbance spectra assay of dicamba degradation by ChD or CAC; conditions: dicamba 200 mg/L + enzyme at 20X dilution (5 μM), one hour at 37° C.
[12] = listed as Chlorothalonil dehalogenase (SEQ ID NO: 169)

B1: ChD (SEQ ID NO: 169): chlorothalonil dehalogenase from Pseudomonas species strain CTN-3 with fifteen amino acid N-terminal truncation, SEQ ID NO: 169 (protein, listed as Pseudomonas sp.)
chain: MPLKFSGVLCASLLTITLSVAAHATELILDFNKVQMRSQQLAPGVYAHLPADSAELNAKGGVAGTSGGLIVGTRGAMLIETMLNRRLFDQVQALAKKEALGLPLLYAVNTSYHGDHSYGNMYLKAPTRVIQSTKTRDYVDGHLADDKAFMVKNFGAGRGVEQITARTGDILVPPGGRVSVDLGGKTVEIIDFGFAQTGGDLFVWEPQSKVMWTGNAVVASKPALPWLLDGKLVETLATLQKVYDFLPPDATIVPGHGVPMAREGLRWHLDYLAAVQAGVKDALARKLSLEQTVTELKMPEFRGYVLFDWVHPDLNVPAAYKDLAARP
- Percentage Increase in Plant Height Compared to Untreated Seed (2,4-D; Weedar ®64 Spray Treatment) (soybean plants [1]): +6%
- Percentage Increase in Total Plant Biomass Compared to Untreated Seed (2,4-D; Weedar ®64 Spray Treatment) (soybean plants [1]): +6%
- Percentage Increase in Plant Height Compared to Untreated Seed (2,4-D; Weedar ®64 Spray Treatment) (soybean plants [1]; [12]): +6%
- Percentage Increase in Total Plant Biomass Compared to Untreated Seed (2,4-D; Weedar ®64 Spray Treatment) (soybean plants [1]; [12]): +6%
- Percentage Increase in Plant Height Compared to Untreated Seed (Dicamba; Clash ™ Spray Treatment) (soybean plants [1]): +35%
- Percentage Increase in Total Plant Biomass Compared to Untreated Seed (Dicamba; Clash ™ Spray Treatment) (soybean plants [1]): +149%
- Percentage Increase in Plant Height Compared to Untreated Seed (Dicamba; Clash ™ Spray Treatment) (soybean plants [1]; [12]): +35%
- Percentage Increase in Total Plant Biomass Compared to Untreated Seed (Dicamba; Clash ™ Spray Treatment) (soybean plants [1]; [12]): +149%
- epinasty score and damage score on the trifoliate leaves compared to dicamba applied alone (soybean plants [2]): decrease in damage
- average trifoliate damage score (soybean plants [3]): 1.1

B2: TfdA: 2,4-D alpha-ketoglutarate dioxygenase with A198V mutation, SEQ ID NO: 277 (protein, UniProt P10088 1-287, looked up)
Alpha-ketoglutarate-dependent …: MSVVANPLHPLFAAGVEDIDLREALGSTEVREIERLMDEKSVLVFRGQPLSQDQQIAFARNFGPLEGGFIKVNQRPSRFKYAELADISNVSLDGKVAQRDAREVVGNFANQLWHSDSSFQQPAARYSMLSAVVVPPSGGDTEFCDMRAAYDALPRDLQSELEGLRAEHYALNSRFLLGDTDYSEAQRNAMPPVNWPLVRTHAGSGRKFLFIGAHASHVEGLPVAEGRMLLAELLEHATQREFVYRHRWNVGDLVMWDNRCVLHRGRRYDISARRELRRATTLDDAVV
- 2,4-dichlorophenol generated ([4]; 2,4-D with TfdA enzyme, after 1 hour of incubation, 30° C. (FIG. 19)): over 2 mg/L
- reduction of 2,4-D concentration quantified by HPLC ([4]; 2,4-D with TfdA, at 4 hours (FIG. 20)): ~10%

B3: SM: salicylate monooxygenase from Bacillus cereus BGSC 6E1, amino acid SEQ ID NO: 21 (nucleotide SEQ ID NO: 1) (protein, listed as Bacillus cereus)
chain: MNNVIIIGGGIAGLCAAISLQKIGLDVKVYDKNTEPTVAGAGIIIAPNAMQALELYGISKKIKKFGNESDGFNLVSEKGTTFNKLIIPTCYPKMYSIHRKDLHQLLLSELKEDTVKWGKECVKIEQNEANALKIVFQDGSEALGNILIAADGIHSVIRKQVTQGDNYRYAGYTCWRGVTPANNLSLTNDFIETWGTNGRFGIVPLPNNEVYWYALINAKARDPKYKAYTTTDLYNHFKTYHNPIPSILKNASDIDMIHRDIIDITPMKQFFDKRIVFIGDAAHALTPNLGQGACQAIEDAIILAECIKNNAHYRQAFLEYEQKRRDRIEKISNTAWKVGKMAQIESKPLTLVRNEVMKRMPKWVSEKRTHELYSFHL
- NADPH consumption [5]: statistically significant levels
- NADPH consumption [6]: statistically significant levels
- NADPH consumption [7]: higher activity
- germination rate (lentil plants; lentil seeds coated with immobilized enzyme, soil with dicamba 0.1× or […] label rate, one week, vs water and particle-alone controls): positive effect
- shoot length (lentil plants; two-week-old lentil, soil with dicamba 0.1× label rate (0.588 mg/L), vs water only or particle only controls (FIG. 6, FIG. 8)): increased shoot lengths
- incubation time of enzyme with dicamba giving plants equivalent to the water control (soybean seedlings): ≤ 10 min

B4: CAC: 6-chloronicotinic acid chlorohydrolase from Bradyrhizobiaceae strain SG-6C, amino acid SEQ ID NO: 167 (protein)
chain: MSLIAIKNADWILTMDGARRVIADGSILIDKDRIRAIGKSAVIEIPPETTKVIDGRGKVVLPGLIDSHTHHSLHLGRGLADECDIQTFLYRRLYPIEASLNDEDAYISALLCQLEMIKSGTTSIIDAGNYFPEATLRAFGTTGMRGVVARSTFDIPTSSLGSLPAQVFAEETNVALKRAEEFVERNSGACDGRVQAWLQLRVLPNCSDELCRGLKSIADRLGVRYEAHAAFTKEVYEASKLQFGKSEVRRLDDLGILGEGLLLAHMGWLTPRDILLLISSKTNVVLCPTSSVHQAMGSIAFGHVPELLEMGVNVALGTDGGPHGTNDLVRQIFVAAGGYKEVRLDATIMPPETVLEMATVNGARAMGMSDQVGSIEPGKKADITIFDSRRPEWRPLHNPVANLVYCANGNSADTVIVDGRILMENRKILTFNEDDVITEAQRRSVEIGARAGLLEYGRPRWPVH
modifications: Bradyrhizobiaceae family
- Percent (%) increase in 252 λ, (end product formed) compared to 2,4-D control [8]: 148%
- Percent (%) increase in 252 λ (end product formed) compared to MCPA-4-Amine control ([9]; MCPA-4 amine 200 mg/L + enzyme at 20X dilution (5 μM)): 340%
- Percent (%) increase in 252 λ (end product formed) compared to MCPA-4-Amine control ([9]; MCPA-4 amine 200 mg/L + enzyme at 40X dilution ([…])): 195%
- Percent (%) increase in 252 λ (end-product formed) compared to Mecoprop control ([10]; mecoprop 200 mg/L + enzyme at 20X dilution (5 μM)): 346%
- Percent (%) increase in 252 λ (end-product formed) compared to Mecoprop control ([10]; mecoprop 200 mg/L + enzyme at 40X dilution ([…])): 130%
- Percent (%) increase in 259 λ (end product formed) compared to dicamba control [11]: 344%
- average trifoliate damage score (soybean plants [3]): 1.0
